This is an account of results in paper PMC5716044 (The Journal of Experimental Medicine, 2017).

In this test the target is full-length EphA4 containing C-terminal FLAG and hexahistidine tags (EphA4-FLAGhis6) (human, UniProt P54764 20-986). In words: pull-down.
Chain of full-length EphA4 containing C-terminal FLAG and hexahistidine tags (EphA4-FLAGhis6) (P54764 20-986): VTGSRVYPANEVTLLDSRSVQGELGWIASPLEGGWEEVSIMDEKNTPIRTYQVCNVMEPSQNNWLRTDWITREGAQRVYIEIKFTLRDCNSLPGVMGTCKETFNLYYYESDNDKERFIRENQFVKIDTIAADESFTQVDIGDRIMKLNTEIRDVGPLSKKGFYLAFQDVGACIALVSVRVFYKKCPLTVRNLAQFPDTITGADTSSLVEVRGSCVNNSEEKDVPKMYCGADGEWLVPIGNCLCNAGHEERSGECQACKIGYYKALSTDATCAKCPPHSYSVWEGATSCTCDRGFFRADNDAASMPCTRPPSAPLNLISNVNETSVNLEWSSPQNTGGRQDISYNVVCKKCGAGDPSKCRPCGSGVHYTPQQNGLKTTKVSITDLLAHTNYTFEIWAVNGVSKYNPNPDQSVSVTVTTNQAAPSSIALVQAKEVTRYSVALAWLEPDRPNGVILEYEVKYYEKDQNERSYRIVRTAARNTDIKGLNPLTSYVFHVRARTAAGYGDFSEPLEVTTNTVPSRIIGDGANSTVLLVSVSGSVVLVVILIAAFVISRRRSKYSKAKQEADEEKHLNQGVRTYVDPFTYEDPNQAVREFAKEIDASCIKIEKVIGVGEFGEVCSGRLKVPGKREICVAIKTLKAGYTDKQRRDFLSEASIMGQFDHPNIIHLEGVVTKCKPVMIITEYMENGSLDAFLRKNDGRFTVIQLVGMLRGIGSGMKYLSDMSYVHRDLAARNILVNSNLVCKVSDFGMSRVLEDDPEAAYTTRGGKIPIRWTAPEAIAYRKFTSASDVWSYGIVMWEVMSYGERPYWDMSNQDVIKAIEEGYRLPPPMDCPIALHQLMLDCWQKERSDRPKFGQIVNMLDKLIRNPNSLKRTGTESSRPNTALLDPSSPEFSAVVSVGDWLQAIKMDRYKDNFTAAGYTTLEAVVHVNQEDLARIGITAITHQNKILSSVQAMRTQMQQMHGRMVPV

B1: SORLA YWTD repeat/EGF-like region (aa 758-1,076) fused to Fc, WT (Fc fusion, UniProt Q92673 758-1076, looked up)
chain: NEFILYAVRKSIYRYDLASGATEQLPLTGLRAAVALDFDYEHNCLYWSDLALDVIQRLCLNGSTGQEVIINSGLETVEALAFEPLSQLLYWVDAGFKKIEVANPDGDFRLTIVNSSVLDRPRALVLVPQEGVMFWTDWGDLKPGIYRSNMDGSAAYHLVSEDVKWPNGISVDDQWIYWTDAYLECIERITFSGQQRSVILDNLPHPYAIAVFKNEIYWDDWSQLSIFRASKYSGSQMEILANQLTGLMDMKIFYKGKNTGSNACVPRPCSLLCLPKANNSRSCRCPEDVSSSVLPSGDLMCDCPQGYQLKNNTCVKQEN
For the molecule B1, the binding result is reported as “binds”.

B2: SORLA YWTD repeat/EGF-like region (aa 758-1,076) fused to Fc, T947M variant (Fc fusion, UniProt Q92673 758-1076, looked up)
chain: NEFILYAVRKSIYRYDLASGATEQLPLTGLRAAVALDFDYEHNCLYWSDLALDVIQRLCLNGSTGQEVIINSGLETVEALAFEPLSQLLYWVDAGFKKIEVANPDGDFRLTIVNSSVLDRPRALVLVPQEGVMFWTDWGDLKPGIYRSNMDGSAAYHLVSEDVKWPNGISVDDQWIYWTDAYLECIERIMFSGQQRSVILDNLPHPYAIAVFKNEIYWDDWSQLSIFRASKYSGSQMEILANQLTGLMDMKIFYKGKNTGSNACVPRPCSLLCLPKANNSRSCRCPEDVSSSVLPSGDLMCDCPQGYQLKNNTCVKQEN
Turning to B2, the binding result is on record as “binds”.
